Biological target: T701-Myo1c (neck-tail fragment of bullfrog myosin-1c, amino acids 701-1028) (bullfrog) (UniProt Q92002)
Experiment: SDS-PAGE gel scanning

Chain of T701-Myo1c (neck-tail fragment of bullfrog myosin-1c, amino acids 701-1028) (bullfrog) (Q92002 701-1028): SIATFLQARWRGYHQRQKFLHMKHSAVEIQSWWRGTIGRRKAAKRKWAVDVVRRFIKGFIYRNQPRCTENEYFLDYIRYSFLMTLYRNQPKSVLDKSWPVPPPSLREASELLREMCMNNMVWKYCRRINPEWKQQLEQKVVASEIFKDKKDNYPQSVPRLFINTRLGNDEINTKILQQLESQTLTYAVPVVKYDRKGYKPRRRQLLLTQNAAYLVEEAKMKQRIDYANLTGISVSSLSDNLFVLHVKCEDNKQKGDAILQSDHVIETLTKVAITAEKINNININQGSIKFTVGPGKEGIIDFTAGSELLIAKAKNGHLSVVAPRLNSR

With “Xenopus calmodulin (from UniProt P0DP33 1-149) (natural protein)” the stoichiometry N (calmodulins per T701-Myo1c) was 2.6.

From article PMC139967
